In test [1] the target is pre-existing anti-scFv903 antibodies in human serum H105 (human). The test can be described thus: competition ADA bridging ELISA, 100 mcg/ml competitor. A general note: In an ELISA, binding on a coated surface is turned into a signal by an enzyme label.
The target in test [2] is pre-existing anti-scFv903 antibodies in human serum H116 (human). The description is as above.
For test [3], the target named is pre-existing anti-scFv903 antibodies in human serum H125 (human). Described as above.
In test [4] the target is pre-existing anti-scFv903 antibodies in human serum H15 (human). The test is described as above.
Test [5] deals with pre-existing anti-scFv903 antibodies in human serum H21 (human). The test is described as above.
In test [6] the target is pre-existing anti-scFv903 antibodies in human serum H26 (human). The description is as above.
The target in test [7] is pre-existing anti-scFv903 antibodies in human serum H29 (human). The description is as above.
Test [8] deals with pre-existing anti-scFv903 antibodies in human serum H3 (human). The description is as above.
Test [9] concerns the target pre-existing anti-scFv903 antibodies in human serum H46 (human). Described as above.
For test [10], the target named is pre-existing anti-scFv903 antibodies in human serum H54 (human). The test is described as above.
The target of test [11] is pre-existing anti-scFv903 antibodies in human serum H59 (human). Described as above.
Test [12] concerns the target pre-existing anti-scFv903 antibodies in human serum H60 (human). The test is described as above.
Test [13] concerns the target pre-existing anti-scFv903 antibodies in human serum H63 (human). The test is described as above.
The target of test [14] is pre-existing anti-scFv903 antibodies in human serum H64 (human). The test is described as above.
For test [15], the target named is pre-existing anti-scFv903 antibodies in human serum H69 (human). Described as above.
Test [16] concerns the target pre-existing anti-scFv903 antibodies in human serum H76 (human). The test is described as above.
The target in test [17] is pre-existing anti-scFv903 antibodies in human serum H79 (human). The test is described as above.
Test [18] has as its target pre-existing anti-scFv903 antibodies in human serum H8 (human). The test is described as above.
Test [19] addresses pre-existing anti-scFv903 antibodies in human serum H80 (human). The test is described as above.
Test [20] deals with pre-existing anti-scFv903 antibodies in human serum H81 (human). The test is described as above.
Test [21] has as its target pre-existing anti-scFv903 antibodies in human serum H86 (human). Described as above.
Test [22] concerns the target pre-existing anti-scFv903 antibodies in human serum H96 (human). The description is as above.
The target in test [23] is rabbit polyclonal Anti-scFv 903 IgG termed AB903-3 (rabbit). The test can be described thus: confirmatory ADA bridging ELISA, pre-incubation with 10, 100 or 1 mcg/ml scFv 903.

B1: scFv 791 (scFv)
scFv: MEIVMTQSPSTLSASLGDRVIITCQSSQSVYGNIWMAWYQQKSGKAPKLLIYQASKLASGVPSRFSGSGSGAEFSLTISSLQPDDFATYYCQGNFNTGDRYAFGQGTKLTVLGGGGGSGGGGSGGGGSGGGGSEVQLVESGGGLVQPGGSLRLSCTASGFTISRSYWICWVRQAPGKGLEWVACIYGDNDITPLYANWAKGRFPVSTDTSKNTVYLQMNSLRAEDTAVYYCARLGYADYAYDLWGQGTLVTVSS
For B1, the % reduction in OD was -96.9% in test [1]; -97.2% in [2]; -97.4% in test [3]; -90% in test [4]; -85.3% in test [5]; -96.8% in test [6]. Moreover, the % reduction in OD was -78.7% in [7]; -85% in test [8]; -77.1% in [9]; -91.7% in [10]; -96.4% in test [11]; -94.8% in test [12]. Moreover, the % reduction in OD was -19.7% in test [13]; -95.5% in [14]; -74.7% in [15]; -48.6% in [16]; -96.8% in test [17]; -90.7% in test [18]. Also, the % reduction in OD is -85.3% in test [19], -94.4% in test [20], -86.7% in test [21] and -78.5% in [22].

B2: scFv 903 (scFv)
scFv: EIVMTQSPSTLSASVGDRVIITCQASEIIHSWLAWYQQKPGKAPKLLIYLASTLASGVPSRFSGSGSGAEFTLTISSLQPDDFATYYCQNVYLASTNGANFGQGTKLTVLGGGGGSGGGGSGGGGSGGGGSEVQLVESGGGLVQPGGSLRLSCTASGFSLTDYYYMTWVRQAPGKGLEWVGFIDPDDDPYYATWAKGRFTISRDTSKNTVYLQMNSLRAEDTAVYYCAGGDHNSGWGLDIWGQGTLVTVSS
With B2, the % reduction in OD was -97.2% in test [1]; -97.8% in test [2]; -97.9% in test [3]; -79.9% in [8]; -97% in test [16]; -97.1% in [17]. Besides, the % reduction in OD in test [18] was -87.3%; in test [19] it was -87%; in test [20], -94.7%; in test [21], -86.2%; in test [22], -80.3%. Besides, the % change in OD (signal change in competition ELISA) was -91.1% in test [4] and -96.8% in test [13]. The % signal change in competition ELISA in test [5] was -85.4%. Besides, in [6], the % change in OD (signal change) was -92%. Besides, the % change in OD signal was -79.4% in test [7] and -79.8% in test [9]. The signal change in OD (%) in test [10] was -93.1%. Also, the signal change in competition ELISA (% change in OD) in [11] was -97%; in test [15], -92.2%. Moreover, the signal change in competition ELISA in test [12] is -95.6%. In [23], this molecule came in with an OD change upon pre-incubation of 60 to 95%.

B3: scFv 961 (scFv)
scFv: EIVMTQSPSTLSASVGDRVIITCQASEIIHSWLAWYQQKPGKAPKLLIYLASTLASGVPSRFSGSGSGAEFTLTISSLQPDDFATYYCQNVYLASTNGANFGQGTKLTVLGGGGGSGGGGSGGGGSGGGGSEVQLVESGGGSVQPGGSLRLSCTASGFSLTDYYYMTWVRQAPGKGLEWVGFIDPDDDPYYATWAKGRFTISRDTSKNTVYLQMNSLRAEDTATYYCAGGDHNSGWGLDIWGQGTTVTVSS
With B3, the % reduction in OD is 7.4% in [1]; -33.2% in test [2]; 2.7% in test [3]; -80.5% in test [5]; 0.1% in [6]; -21.9% in test [7]. Also, the % reduction in OD in test [8] is -1.7%; in [9] it was -40.1%; in test [10], -69.4%; in test [11], -67.3%; in test [12], -1.2%; in test [13], -35.9%. Moreover, the % reduction in OD in [14] is -13.7%; in test [15], -6.2%; in test [16], -36.4%; in test [17], -74.1%; in [18], -88.6%; in test [19] it was -55.1%. Moreover, the % reduction in OD in test [20] was -8.8%; in test [21] it was -67.9%; in [22] it was -78%.

B4: scFv105 (scFv)
scFv: DIVMTQSPSSLSASVGDRVTLTCTASQSVSNDVVWYQQRPGKAPKLLIYSAFNRYTGVPSRFSGRGYGTDFTLTISSLQPEDVAVYYCQQDYNSPRTFGQGTKLEVKRGGGGSGGGGSGGGGSSGGGSQVQLVQSGAEVKKPGASVKVSCTASGYTFTHYGMNWVRQAPGKGLEWMGWINTYTGEPTYADKFKDRFTFSLETSASTVYMELTSLTSDDTAVYYCARERGDAMDYWGQGTLVTVSS
In the case of B4, the % reduction in OD in [1] was 2.4%; in test [2] it was -43.4%; in [3] it was -55.5%; in test [4], -69.5%; in test [5] it was -3.4%; in test [6], -79.9%. Further, the % reduction in OD was -51.4% in test [7]; -58.8% in test [8]; -66.7% in test [9]; -61.3% in test [10]; -93.7% in [11]; -10.8% in [12]. Besides, the % reduction in OD in test [13] is -80.5%; in [14] it was -55.5%; in test [15] it was -87.6%; in [16], -65.7%; in [17], -40.5%; in [18] it was -23.1%. The figures for the % reduction in OD in [19], in test [20] and in test [22] were -50.9%, -18.1% and -29%, respectively.

These data come from patent US20210214461A1.
